The text below walks through data of the supplement of paper PMC7877785.

A short description of this series: self-splicing fitness, log relative to wild type (ln ratio); higher = more splicing; Tetrahymena group I intron in knt gene, E. coli kanamycin selection, DiMSum; sequences stand for … in CUCUCU…GGAGGGAAAAGUUAUCAGGCAUGCACCUGGUAGCUAGUCUUUAAACCAAUAGAUUGCAUCGGUUUAAAAGGCAAGACCGUCAAAUUGCGGGAAAGGGGUCAACAGCCGUUCAGUACCAAGUCUCAGGGGAAACUUUGAGAUGGCCUUGCAAAGGGUAUGGUAAUAAGCUGACGGACAUGGUCCUAACCACGCAGCCAAGUCCUAAGUCAACAGAUCUUCUGUUGAUAUGGAUGCAGUUCACAGACUAAAUGUCGGUCGGGGAAGAUGUAUUCUUCUCAUAAGAUAUAGUCGGACCUCUCCUUAAUGGGAGCUAGCGGAUGAAGUGAUGCAACACUGGAGCCGCUGGGAACUAAUUUGUAUGCGAAAGUAUAUUGAUUAGUUUUGGAGUACUCGUGGUCG
In short, it runs like this:
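Colonies from six replicate transformations of E. coli BL21(DE3) were pooled and amplicon-sequenced on an Illumina HiSeq 2500. The library placed an intron with all eight P1ex-region nucleotides randomised inside the knt kanamycin-resistance gene on pET-22b(+), and cells grew overnight at 37°C or 30°C on LB agar with or without 25 μg/mL kanamycin (plus 100 μg/mL carbenicillin, 50 μM IPTG, 0.2% rhamnose). Fitness is the DiMSum error-weighted combination of wild-type-normalised replicate fold changes, kanamycin versus none.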

± gives the uncertainty stated by the source.

On to UGGCAGCAAUAUUACGUGUG, for which the “self-splicing fitness (ln)” value is, setting by setting: (30 °C) -0.896 ± 0.043; (37 °C) -0.192 ± 0.057.
Regarding UUUAAGCAAUAUUACGUCGA, the “self-splicing fitness (ln)” value reads like this: (30 °C) -0.771 ± 0.092; (37 °C) -0.225 ± 0.1.
Consider GCUAAGCAAUAUUACGCAAG, for which the “self-splicing fitness (ln)” value (37 °C) is -1.46 ± 0.28.
Take UUGGAGCAAUAUUACGUCAA: the “self-splicing fitness (ln)” value (30 °C) was -2.19 ± 0.25 and the “self-splicing fitness (ln)” value (37 °C) was -0.538 ± 0.19.
Turning to ACGUAGCAAUAUUACGGACC, the “self-splicing fitness (ln)” value is, setting by setting: (30 °C) -1.21 ± 0.16; (37 °C) -0.314 ± 0.2.
In the same order, the values of CCGCAGCAAUAUUACGUAAA are -4.2 ± 0.25 and -2.62 ± 0.2.
In the case of AGUCAGCAAUAUUACGAAGG, the “self-splicing fitness (ln)” value (30 °C) was -1.27 ± 0.08 and the “self-splicing fitness (ln)” value (37 °C) is -1.46 ± 0.12.
As to UAGCAGCAAUAUUACGUGUA, the “self-splicing fitness (ln)” value (30 °C) was -1.17 ± 0.062 and the “self-splicing fitness (ln)” value (37 °C) is -0.62 ± 0.077.
For UAUAAGCAAUAUUACGCCGA the same measures were -1.53 ± 0.14 and 0.235 ± 0.14.
For CUGAAGCAAUAUUACGUGCA the same measures were -3.96 ± 0.27 and -2.82 ± 0.25.
With CACGAGCAAUAUUACGUGUA, the “self-splicing fitness (ln)” value is -3.1 ± 0.21 (30 °C) and -2.88 ± 0.2 (37 °C).
As to ACUUAGCAAUAUUACGGGAC, the “self-splicing fitness (ln)” value reads like this: (30 °C) -3.61 ± 0.19; (37 °C) -2.03 ± 0.17.
As to GACAAGCAAUAUUACGGAGA, the “self-splicing fitness (ln)” value (30 °C) was -2.59 ± 0.18 and the “self-splicing fitness (ln)” value (37 °C) is -1.98 ± 0.14.
UACCAGCAAUAUUACGCCUG: the “self-splicing fitness (ln)” value was -1.3 ± 0.14 (30 °C) and -1.21 ± 0.19 (37 °C).
In the same order, the values of AUGUAGCAAUAUUACGACAU are -1.39 ± 0.014 and -0.557 ± 0.033.
For ACUGAGCAAUAUUACGCGGG the same measures were -2.64 ± 0.17 and -2.03 ± 0.18.
For UUGCAGCAAUAUUACGGACC the same measures were -2.34 ± 0.27 and -2 ± 0.26.
Turning to UGCCAGCAAUAUUACGAGUC, the “self-splicing fitness (ln)” value (30 °C) was -3.49 ± 0.16 and the “self-splicing fitness (ln)” value (37 °C) is -1.6 ± 0.16.
For CUUUAGCAAUAUUACGUAAC, where the note is “37 °C”, the “self-splicing fitness (ln)” value was -1.64 ± 0.37.
On to GGUAAGCAAUAUUACGACCG, for which the “self-splicing fitness (ln)” value reads like this: (30 °C) -1.05 ± 0.16; (37 °C) 0.0485 ± 0.22.
For UGGGAGCAAUAUUACGGAUG the same measures were -3.69 ± 0.39 and -1.14 ± 0.26.
In the case of AAGAAGCAAUAUUACGGACA, the “self-splicing fitness (ln)” value is, setting by setting: (30 °C) -1.66 ± 0.092; (37 °C) -0.389 ± 0.096.
GGAAAGCAAUAUUACGGGGC: the “self-splicing fitness (ln)” value is, setting by setting: (30 °C) -3.54 ± 0.28; (37 °C) -0.864 ± 0.21.
Turning to AAUUAGCAAUAUUACGUUCC, the “self-splicing fitness (ln)” value by setting is: (30 °C) -3 ± 0.22; (37 °C) -1.32 ± 0.21.
In the case of GCUCAGCAAUAUUACGGCCC, the “self-splicing fitness (ln)” value runs as follows: (30 °C) -1.13 ± 0.078; (37 °C) -0.029 ± 0.1.
For CGCAAGCAAUAUUACGCACA the same measures were -0.694 ± 0.096 and -0.825 ± 0.1.
In the same order, the values of CUUGAGCAAUAUUACGGCUG are -1.55 ± 0.14 and -1.46 ± 0.19.
ACGGAGCAAUAUUACGUUCC: the “self-splicing fitness (ln)” value reads like this: (30 °C) -3.92 ± 0.47; (37 °C) -2.01 ± 0.37.
In the same order, the values of ACCAAGCAAUAUUACGGCCC are -0.856 ± 0.11 and 0.112 ± 0.16.
For CUUGAGCAAUAUUACGUACA the same measures were -1.97 ± 0.4 and -1.77 ± 0.38.
For CUAAAGCAAUAUUACGUCCU the same measures were -3.29 ± 0.24 and -1.92 ± 0.26.
CUUUAGCAAUAUUACGCAGG: the “self-splicing fitness (ln)” value (30 °C) was -2.83 ± 0.39.
Consider UACUAGCAAUAUUACGGGAU, for which the “self-splicing fitness (ln)” value is, setting by setting: (30 °C) -3.17 ± 0.17; (37 °C) -1.43 ± 0.13.
For CAAUAGCAAUAUUACGUUCC the same measures were -2.6 ± 0.26 and -2.13 ± 0.35.
In the same order, the values of CAAAAGCAAUAUUACGGAAG are -1.23 ± 0.049 and -0.438 ± 0.071.
For GUUCAGCAAUAUUACGCACG the same measures were -0.107 ± 0.22 and -0.682 ± 0.31.
GGAUAGCAAUAUUACGGGGU: the “self-splicing fitness (ln)” value (37 °C) is -3.01 ± 0.35.
Turning to UGAAAGCAAUAUUACGCCCU, the “self-splicing fitness (ln)” value (30 °C) was -0.195 ± 0.11 and the “self-splicing fitness (ln)” value (37 °C) was 0.295 ± 0.15.
On to UACGAGCAAUAUUACGGCGC, for which the “self-splicing fitness (ln)” value is -2.53 ± 0.29 (30 °C) and -2.4 ± 0.46 (37 °C).
Regarding GUAUAGCAAUAUUACGCCUG, the “self-splicing fitness (ln)” value (30 °C) was -2.67 ± 0.11 and the “self-splicing fitness (ln)” value (37 °C) is -0.647 ± 0.1.
For GUUCAGCAAUAUUACGCGGU the same measures were -1.52 ± 0.11 and -1.69 ± 0.14.
Regarding GGGCAGCAAUAUUACGCGGC, the “self-splicing fitness (ln)” value (37 °C) is -1.26 ± 0.38.
For GCUAAGCAAUAUUACGGGAU, the “self-splicing fitness (ln)” value reads like this: (30 °C) -2.86 ± 0.1; (37 °C) -0.821 ± 0.081.
Regarding CACCAGCAAUAUUACGAACG, the “self-splicing fitness (ln)” value was 0.223 ± 0.063 (30 °C) and 0.344 ± 0.078 (37 °C).
For the sequence UAUAAGCAAUAUUACGAAGG, the “self-splicing fitness (ln)” value (30 °C) was -2.23 ± 0.21 and the “self-splicing fitness (ln)” value (37 °C) was -1.19 ± 0.23.
In the same order, the values of GCUAAGCAAUAUUACGGGGA are -1.74 ± 0.17 and -1.55 ± 0.21.
For UUCGAGCAAUAUUACGGGAG the same measures were -3.53 ± 0.2 and -2.84 ± 0.22.
In the same order, the values of ACCGAGCAAUAUUACGUAUA are -3.96 ± 0.35 and -2.6 ± 0.27.
As to UAGGAGCAAUAUUACGGAUA, the “self-splicing fitness (ln)” value (30 °C) is -2.09 ± 0.29 and the “self-splicing fitness (ln)” value (37 °C) is -1.46 ± 0.23.
Regarding UCUAAGCAAUAUUACGUCAG, the “self-splicing fitness (ln)” value reads like this: (30 °C) -1.23 ± 0.073; (37 °C) -0.611 ± 0.08.
Turning to CCUAAGCAAUAUUACGGGUU, the “self-splicing fitness (ln)” value reads like this: (30 °C) -3.52 ± 0.2; (37 °C) -2.84 ± 0.2.
AAAAAGCAAUAUUACGAAAA: the “self-splicing fitness (ln)” value (30 °C) is -2.26 ± 0.17 and the “self-splicing fitness (ln)” value (37 °C) is -0.664 ± 0.14.
In the same order, the values of CGGCAGCAAUAUUACGCAUC are -3.25 ± 0.26 and -2.39 ± 0.41.
In the same order, the values of GCAUAGCAAUAUUACGGAGU are -3.52 ± 0.14 and -1.86 ± 0.11.
Take GUAUAGCAAUAUUACGAACG: the “self-splicing fitness (ln)” value (30 °C) is -1.91 ± 0.32.
Regarding CUCCAGCAAUAUUACGACUG, the “self-splicing fitness (ln)” value is -3.12 ± 0.14 (30 °C) and -2.83 ± 0.16 (37 °C).
In the same order, the values of CGUCAGCAAUAUUACGCCUA are -2.32 ± 0.29 and -0.757 ± 0.18.
As to UCGCAGCAAUAUUACGCCAU, the “self-splicing fitness (ln)” value (37 °C) is -1.96 ± 0.4.
On to CAUUAGCAAUAUUACGGAAA, for which the “self-splicing fitness (ln)” value (30 °C) is -3.86 ± 0.47 and the “self-splicing fitness (ln)” value (37 °C) is -2.52 ± 0.3.
Turning to GCUCAGCAAUAUUACGCCCU, the “self-splicing fitness (ln)” value was -1.18 ± 0.19 (30 °C) and 0.764 ± 0.18 (37 °C).
Regarding AAGGAGCAAUAUUACGUCAG, the “self-splicing fitness (ln)” value (30 °C) is -3.29 ± 0.41 and the “self-splicing fitness (ln)” value (37 °C) is -2.28 ± 0.45.
In the same order, the values of ACUUAGCAAUAUUACGUGCA are -1.1 ± 0.055 and -0.535 ± 0.072.
Take AGCAAGCAAUAUUACGUGGU: the “self-splicing fitness (ln)” value is, setting by setting: (30 °C) -2.79 ± 0.12; (37 °C) -3.13 ± 0.18.
GUCGAGCAAUAUUACGUUUG: the “self-splicing fitness (ln)” value (30 °C) was -2.54 ± 0.28 and the “self-splicing fitness (ln)” value (37 °C) was -2.11 ± 0.24.
In the same order, the values of UACGAGCAAUAUUACGGUUC are -4.18 ± 0.19 and -2.5 ± 0.15.
For the sequence UACGAGCAAUAUUACGGUAC, the “self-splicing fitness (ln)” value was -3.89 ± 0.3 (30 °C) and -2.76 ± 0.34 (37 °C).
For CUUCAGCAAUAUUACGGGCG the same measures were -0.584 ± 0.076 and -0.302 ± 0.098.
For CAUCAGCAAUAUUACGACAA the same measures were -2.31 ± 0.24 and -1.41 ± 0.21.
In the same order, the values of GUACAGCAAUAUUACGGGCC are -3.94 ± 0.3 and -1.14 ± 0.15.
With AGCGAGCAAUAUUACGUUUC, the “self-splicing fitness (ln)” value (30 °C) was -4.07 ± 0.21 and the “self-splicing fitness (ln)” value (37 °C) is -2.77 ± 0.18.
For the sequence UAAGAGCAAUAUUACGCUAA, for the setting “37 °C”, the “self-splicing fitness (ln)” value was -1.77 ± 0.27.
With AUGUAGCAAUAUUACGGAGA, the “self-splicing fitness (ln)” value (37 °C) was -2.06 ± 0.38.
Take UUCUAGCAAUAUUACGGAUC: the “self-splicing fitness (ln)” value is, setting by setting: (30 °C) -2.3 ± 0.21; (37 °C) -0.989 ± 0.31.
For AACCAGCAAUAUUACGUAAC the same measures were -2.5 ± 0.094 and -1.15 ± 0.11.
As to GCGAAGCAAUAUUACGGGGC, the “self-splicing fitness (ln)” value was -3.1 ± 0.24 (30 °C) and -1.82 ± 0.23 (37 °C).
With AAACAGCAAUAUUACGAGGC, the “self-splicing fitness (ln)” value was -3.32 ± 0.17 (30 °C) and -3.12 ± 0.28 (37 °C).
For AGAAAGCAAUAUUACGAAAC the same measures were -3.2 ± 0.25 and -2.93 ± 0.24.
Consider GUCUAGCAAUAUUACGGCAG, for which the “self-splicing fitness (ln)” value (37 °C) was -1.72 ± 0.44.
